Patent EP4793288A1
Where a chain is given by its changes, count along the chain named.

B1: T22A4 (Fab clone displayed on phage) (Fab, V domains shown)
VH: EVQLVESGGNWVQPGGSLRLSCAASGFSFRSYAMSWVRQAPGKGLEWVSSISGSGNSELYAGSVKGRFTISRDNSKNTLSLQLHSLRAEDTAMYYCAKFSAAVGFLPDYFDSWGQGTLVTVSS
VL: ELTLTQSPSSLSASVGDRVTITCQASHDISKYLNWYQQKSGKAPKLLIYDASNLETGVPSRFSGSGSGTDFTLTISSLQPEDFATYYCQQSYRTPLTFGGGTKLEIK
B2: T23D5 (Fab clone displayed on phage) (Fab, V domains shown)
VH: QVQLQESGPGLVKPSETLSLTCTVSGGSIDRSSHYWGWIRQPPGKGLEWLGSIYYSGITYYNPSLKSRVTISVDTSRNQFSLTLSSVTAADTAVYYCARHGSYDSWAGRYKWDRFDPWGQGTPVTVSS
VL: B1 VL with T3Q, L4M, R93S, L104V

Target: Recombinant HLA-G antigen (human) (UniProt P17693)
Assay: monoclonal phage ELISA, Fab on phage, anti-M13 HRP (selection threshold)

Row | Binder | absorbance (OD450)
1 | B1 | > 0.4
2 | B2 | > 0.4
